Results on five molecules are retold here after article PMC4055580, “Simplagrin, a Platelet Aggregation Inhibitor from Simulium nigrimanum Salivary Glands Specifically Binds to the Von Willebrand Factor Receptor in Collagen and Inhibits Carotid Thrombus Formation In Vivo” (PLoS Neglected Tropical Diseases, 2014).

Experiment [1] deals with Simplagrin (Simulium platelet aggregation inhibitor), recombinant (Simulium nigrimanum) (UniProt D1FQ14). The experiment is described as follows: SPR; kinetics: Simplagrin as ligand, RGQOGVMGF peptide as analyte (1-500 nM), 30 µL/min for 180 s, dissociation 600 s, global 1:1 model. In general terms: In SPR one partner is held on a chip, and binding of the other changes the refractive index at the surface.

For experiment [2] the target is unchanged. The experiment is described as follows: SPR; steady state: Simplagrin immobilised on CM5 (500 RU), soluble collagens as analyte, HBS-P; KD as the analyte concentration at 50% of saturation.
Experiment [3] has as its target Soluble human collagen type I (human) (UniProt P02452). As to the kind of experiment: SPR; Simplagrin-CT with collagen type I and III; who was immobilised is not told in what was shown.
Experiment [4] deals with Soluble human collagen type III (human) (UniProt P02461). The experiment is described as above.
For experiment [5], the target named is T1, Soluble human collagen type III (human, UniProt P02461 154-1221).
T1 construct: also called Collagen-III; collagen III; source: bought: R&D Systems
T1 sequence (looked up): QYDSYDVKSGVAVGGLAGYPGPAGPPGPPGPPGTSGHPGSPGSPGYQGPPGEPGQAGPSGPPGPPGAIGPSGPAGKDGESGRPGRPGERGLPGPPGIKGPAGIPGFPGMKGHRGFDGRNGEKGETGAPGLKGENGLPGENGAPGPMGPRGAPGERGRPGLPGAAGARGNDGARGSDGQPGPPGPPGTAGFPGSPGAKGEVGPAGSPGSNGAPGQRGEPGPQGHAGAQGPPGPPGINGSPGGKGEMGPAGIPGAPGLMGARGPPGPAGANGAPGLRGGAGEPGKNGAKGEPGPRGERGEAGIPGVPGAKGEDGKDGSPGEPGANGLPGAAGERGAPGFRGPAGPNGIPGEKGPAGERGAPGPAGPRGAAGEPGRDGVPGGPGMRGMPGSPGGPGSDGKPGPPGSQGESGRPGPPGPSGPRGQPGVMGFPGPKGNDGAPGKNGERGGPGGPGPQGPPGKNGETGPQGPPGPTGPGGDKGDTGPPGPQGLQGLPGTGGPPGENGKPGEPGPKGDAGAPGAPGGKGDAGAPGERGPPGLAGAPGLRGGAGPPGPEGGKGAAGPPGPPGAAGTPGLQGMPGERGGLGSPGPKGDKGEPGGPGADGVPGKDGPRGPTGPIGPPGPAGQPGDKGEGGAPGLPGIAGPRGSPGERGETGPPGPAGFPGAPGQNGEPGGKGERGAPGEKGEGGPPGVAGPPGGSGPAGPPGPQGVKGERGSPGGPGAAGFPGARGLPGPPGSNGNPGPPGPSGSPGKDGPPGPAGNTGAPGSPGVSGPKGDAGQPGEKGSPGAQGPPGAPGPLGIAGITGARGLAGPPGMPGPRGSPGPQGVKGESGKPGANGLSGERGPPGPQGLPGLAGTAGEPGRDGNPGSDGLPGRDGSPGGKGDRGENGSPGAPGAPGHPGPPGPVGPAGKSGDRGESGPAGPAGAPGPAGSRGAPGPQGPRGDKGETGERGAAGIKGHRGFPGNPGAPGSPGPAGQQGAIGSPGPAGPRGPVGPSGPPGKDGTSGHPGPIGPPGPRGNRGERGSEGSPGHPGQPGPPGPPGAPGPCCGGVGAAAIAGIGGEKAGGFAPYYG
As to the kind of experiment: SPR; thermodynamics: Simplagrin (10-500 nM) over immobilised collagen type I or III at 15, 20, 25, 30, 35 and 40°C; 1:1 model, van't Hoff equation. The settings on record: both partners purified.

The target of experiment [6] is T2, Soluble human collagen type I (human, UniProt P02452 162-1218; P08123 80-1119).
T2 construct: also called Collagen-I; Col-I; source: bought: R&D Systems
T2 sequence (P02452 162-1218, chain 1 of 2): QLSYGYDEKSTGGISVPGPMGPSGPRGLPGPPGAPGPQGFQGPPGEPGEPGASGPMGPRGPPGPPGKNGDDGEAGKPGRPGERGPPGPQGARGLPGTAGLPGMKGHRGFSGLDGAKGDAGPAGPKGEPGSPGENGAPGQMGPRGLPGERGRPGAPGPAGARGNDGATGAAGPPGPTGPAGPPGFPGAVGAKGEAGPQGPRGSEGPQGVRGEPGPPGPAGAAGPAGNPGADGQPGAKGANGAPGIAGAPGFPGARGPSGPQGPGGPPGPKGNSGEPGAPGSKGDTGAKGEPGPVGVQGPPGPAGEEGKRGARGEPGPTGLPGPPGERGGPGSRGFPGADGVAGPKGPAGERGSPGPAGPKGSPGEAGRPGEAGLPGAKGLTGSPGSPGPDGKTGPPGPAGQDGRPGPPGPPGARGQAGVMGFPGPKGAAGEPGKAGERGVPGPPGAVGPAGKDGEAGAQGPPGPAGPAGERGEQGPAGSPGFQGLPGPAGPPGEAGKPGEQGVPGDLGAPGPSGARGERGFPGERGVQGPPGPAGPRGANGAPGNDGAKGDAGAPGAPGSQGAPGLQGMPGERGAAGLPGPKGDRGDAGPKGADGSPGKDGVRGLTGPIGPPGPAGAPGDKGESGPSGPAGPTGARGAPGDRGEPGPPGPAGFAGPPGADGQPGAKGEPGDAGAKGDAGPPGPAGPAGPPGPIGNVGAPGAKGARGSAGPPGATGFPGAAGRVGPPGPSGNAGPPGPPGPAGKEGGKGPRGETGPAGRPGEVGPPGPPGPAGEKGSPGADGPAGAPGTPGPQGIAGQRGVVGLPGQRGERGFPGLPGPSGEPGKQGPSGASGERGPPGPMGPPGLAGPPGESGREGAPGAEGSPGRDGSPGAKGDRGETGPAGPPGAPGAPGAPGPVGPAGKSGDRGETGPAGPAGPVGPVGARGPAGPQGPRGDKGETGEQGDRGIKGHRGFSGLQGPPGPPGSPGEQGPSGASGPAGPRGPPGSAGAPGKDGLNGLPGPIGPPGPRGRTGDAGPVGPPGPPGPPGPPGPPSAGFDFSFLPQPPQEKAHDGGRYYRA
T2 sequence (P08123 80-1119, chain 2 of 2): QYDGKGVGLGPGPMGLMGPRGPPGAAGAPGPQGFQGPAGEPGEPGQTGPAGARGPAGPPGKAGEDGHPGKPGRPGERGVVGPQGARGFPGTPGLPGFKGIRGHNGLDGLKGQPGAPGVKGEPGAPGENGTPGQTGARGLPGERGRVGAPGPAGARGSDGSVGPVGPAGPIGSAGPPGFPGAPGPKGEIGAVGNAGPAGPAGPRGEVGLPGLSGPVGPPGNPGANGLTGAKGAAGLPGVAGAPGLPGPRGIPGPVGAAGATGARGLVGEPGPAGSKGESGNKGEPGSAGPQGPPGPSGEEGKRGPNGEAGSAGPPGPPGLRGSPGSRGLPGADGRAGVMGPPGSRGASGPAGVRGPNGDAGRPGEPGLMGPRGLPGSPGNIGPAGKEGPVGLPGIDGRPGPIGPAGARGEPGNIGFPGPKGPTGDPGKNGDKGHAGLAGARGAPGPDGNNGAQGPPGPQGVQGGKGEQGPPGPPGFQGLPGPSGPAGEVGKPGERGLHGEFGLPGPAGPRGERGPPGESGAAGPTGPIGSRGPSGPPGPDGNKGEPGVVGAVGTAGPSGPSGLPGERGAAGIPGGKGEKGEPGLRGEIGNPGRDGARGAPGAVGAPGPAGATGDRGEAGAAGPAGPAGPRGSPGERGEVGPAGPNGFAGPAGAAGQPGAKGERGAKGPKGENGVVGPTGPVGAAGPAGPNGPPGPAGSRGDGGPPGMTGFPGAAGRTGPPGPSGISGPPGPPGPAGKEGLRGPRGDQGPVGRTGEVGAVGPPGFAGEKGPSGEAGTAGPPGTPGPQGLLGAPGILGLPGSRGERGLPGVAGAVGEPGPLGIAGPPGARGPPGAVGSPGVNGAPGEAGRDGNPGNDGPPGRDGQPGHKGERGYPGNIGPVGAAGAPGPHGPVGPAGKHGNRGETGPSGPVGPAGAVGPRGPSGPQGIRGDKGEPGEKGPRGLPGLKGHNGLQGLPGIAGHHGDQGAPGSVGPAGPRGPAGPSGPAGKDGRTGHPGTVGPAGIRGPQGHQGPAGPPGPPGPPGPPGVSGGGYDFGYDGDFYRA
The experiment is described as above. The settings on record: both partners purified.

The target of experiment [7] is T1, Soluble human collagen type III. The experiment is described as follows: ELISA; blocking: collagen type III (0.3 µg/mL) coated, Simplagrin 0.0015-1.5 µM for one hour at 37°C, washed, then 3 nM vWF; detected with anti-human vWF. The settings on record: both partners purified. For orientation: ELISA stands for enzyme-linked immunosorbent assay.
Experiment [8] shares this target. As to the kind of experiment: SPR; steady state: Simplagrin immobilised on CM5 (500 RU), soluble collagens as analyte, HBS-P; KD as the analyte concentration at 50% of saturation. The settings on record: both partners purified.
Experiment [9] addresses T2, Soluble human collagen type I. The description is as above. The settings on record: both partners purified.
Experiment [10] has as its target Soluble human collagen type VI (human, UniProt P12109 20-1028; P12110 21-1019; P12111 26-3177). The description is as above. The settings on record: both partners purified.
For experiment [11], the target named is Soluble human collagen type IV (human, UniProt P02462 173-1669; P08572 184-1712). Described as above. The settings on record: both partners purified.
Experiment [12] has as its target T1, Soluble human collagen type III. As to the kind of experiment: SPR; kinetics: collagen type I or III immobilised on CM5 by amine coupling, Simplagrin as analyte (0.015-1 µM), 180 s contact at 30 µL/min, 25°C, HBS-P, 1:1 Langmuir model. The settings on record: both partners purified.
In experiment [13] the target is T2, Soluble human collagen type I. The description is as above. The settings on record: both partners purified.

Chain of Soluble human collagen type I (human) (P02452 162-1218, chain 1 of 2): as the sequence (P02452 162-1218, chain 1 of 2) above
Chain of Soluble human collagen type I (human) (P08123 80-1119, chain 2 of 2, further chain): as the sequence (P08123 80-1119, chain 2 of 2) above

“RGQOGVMGF collagen-derived peptide (vWF-recognition peptide)”: in [1], the Kd – broadly, the free concentration of one partner at which half of the binding sites on the other are occupied at equilibrium, for simple one-to-one binding – turned out to be 0.0111 µM; the koff (usually a measure of how fast the partners let go of each other) came out at 0.00048 s⁻¹; the kon (in general, the rate constant with which the complex forms) was determined as 727000 M⁻¹ s⁻¹.
For “Collagen type I from rat tail (from UniProt P02454 23-1207; P02466 86-1125) (natural protein)”, the dissociation constant Kd in [2] was 0.0124 µM.
The same measure, in the same setting: as for “Soluble human collagen type V (from UniProt P20908 38-1605; P05997 27-1229) (natural protein)”, the figure is 0.0109 µM.
“Simplagrin carboxy-terminus domain (Simplagrin-CT) (domain or fragment)”: the dissociation constant Kd in [3] is 0.285 µM; in experiment [4], 0.162 µM.

B1: Simplagrin (Simulium platelet aggregation inhibitor), recombinant (natural protein, Simulium nigrimanum, UniProt D1FQ14 21-286, looked up)
chain: SPIPDEESEETEDAEQEEDAEEEEHAEEEAQEDGDQTQDTDQESDDGQEETANQGSDEQQEEDGSHGTDETDDEAAGSRTEDVESGGDEQNDGEENGSQENGEEVTGGEDDSHGAQDSEGGEEDAAAQEAGGKKSKGKGAKGGQGSNRAGSSSGGEESAAHTYQEVMRILNGIKINAKEPLKSRLVNGLQYLKVDTINRVENIQKFSRIEHCFGNLDHIVQLYAGDAVERNDYCKGTCIDMVSNEFRGQMEELTSRLYPCLQGGYY
notes: Simplagrin (cluster Sim-50), salivary gland protein of Simulium nigrimanum; precursor of 286 aa with a predicted signal peptide of 20 aa; the construct holds the mature protein and a 6X-His tag before the stop codon; Synthetic codon optimised gene in the VR2001 TOPO vector; also called Sim-50; recombinant Simplagrin; source: FreeStyle293 F (HEK293) cells, transfected, secreted; purified (Ni2+ …)
As for B1, the dH is -54 kJ/mol in experiment [5] and -19 kJ/mol in experiment [6]. In addition, the IC50 (in general, the concentration that gives 50% inhibition) in [7] was around 0.1 µM. Besides, the Kd in [8] is 0.00972 µM; in experiment [9] it was 0.0103 µM; in [10], 0.0233 µM; in experiment [11] it was 0.0276 µM; in experiment [12] it was 0.0021 µM; in [13], 0.00551 µM. The molecule further had a dissociation rate constant (koff) in experiment [12] of 0.00031 s⁻¹. Besides, in experiment [12], the kon was found to be 148000 M⁻¹ s⁻¹.
